Target: Rabbit skeletal muscle actin (F-actin) (rabbit) (UniProt P68135)
Experiment: co-sedimentation

GST-Cno (aa 1,560–2,051) (domain or fragment)
percent pelleted with F-actin: 41%

From PMC2712996
